# How the values were obtained:
# [1] = target: ALK LF655del cleavage site mutant
# [2] = target: Full-length human anaplastic lymphoma kinase (ALK) receptor, wild type
# Chain of Full-length human anaplastic lymphoma kinase (ALK) receptor, wild type (chain, as listed by the source): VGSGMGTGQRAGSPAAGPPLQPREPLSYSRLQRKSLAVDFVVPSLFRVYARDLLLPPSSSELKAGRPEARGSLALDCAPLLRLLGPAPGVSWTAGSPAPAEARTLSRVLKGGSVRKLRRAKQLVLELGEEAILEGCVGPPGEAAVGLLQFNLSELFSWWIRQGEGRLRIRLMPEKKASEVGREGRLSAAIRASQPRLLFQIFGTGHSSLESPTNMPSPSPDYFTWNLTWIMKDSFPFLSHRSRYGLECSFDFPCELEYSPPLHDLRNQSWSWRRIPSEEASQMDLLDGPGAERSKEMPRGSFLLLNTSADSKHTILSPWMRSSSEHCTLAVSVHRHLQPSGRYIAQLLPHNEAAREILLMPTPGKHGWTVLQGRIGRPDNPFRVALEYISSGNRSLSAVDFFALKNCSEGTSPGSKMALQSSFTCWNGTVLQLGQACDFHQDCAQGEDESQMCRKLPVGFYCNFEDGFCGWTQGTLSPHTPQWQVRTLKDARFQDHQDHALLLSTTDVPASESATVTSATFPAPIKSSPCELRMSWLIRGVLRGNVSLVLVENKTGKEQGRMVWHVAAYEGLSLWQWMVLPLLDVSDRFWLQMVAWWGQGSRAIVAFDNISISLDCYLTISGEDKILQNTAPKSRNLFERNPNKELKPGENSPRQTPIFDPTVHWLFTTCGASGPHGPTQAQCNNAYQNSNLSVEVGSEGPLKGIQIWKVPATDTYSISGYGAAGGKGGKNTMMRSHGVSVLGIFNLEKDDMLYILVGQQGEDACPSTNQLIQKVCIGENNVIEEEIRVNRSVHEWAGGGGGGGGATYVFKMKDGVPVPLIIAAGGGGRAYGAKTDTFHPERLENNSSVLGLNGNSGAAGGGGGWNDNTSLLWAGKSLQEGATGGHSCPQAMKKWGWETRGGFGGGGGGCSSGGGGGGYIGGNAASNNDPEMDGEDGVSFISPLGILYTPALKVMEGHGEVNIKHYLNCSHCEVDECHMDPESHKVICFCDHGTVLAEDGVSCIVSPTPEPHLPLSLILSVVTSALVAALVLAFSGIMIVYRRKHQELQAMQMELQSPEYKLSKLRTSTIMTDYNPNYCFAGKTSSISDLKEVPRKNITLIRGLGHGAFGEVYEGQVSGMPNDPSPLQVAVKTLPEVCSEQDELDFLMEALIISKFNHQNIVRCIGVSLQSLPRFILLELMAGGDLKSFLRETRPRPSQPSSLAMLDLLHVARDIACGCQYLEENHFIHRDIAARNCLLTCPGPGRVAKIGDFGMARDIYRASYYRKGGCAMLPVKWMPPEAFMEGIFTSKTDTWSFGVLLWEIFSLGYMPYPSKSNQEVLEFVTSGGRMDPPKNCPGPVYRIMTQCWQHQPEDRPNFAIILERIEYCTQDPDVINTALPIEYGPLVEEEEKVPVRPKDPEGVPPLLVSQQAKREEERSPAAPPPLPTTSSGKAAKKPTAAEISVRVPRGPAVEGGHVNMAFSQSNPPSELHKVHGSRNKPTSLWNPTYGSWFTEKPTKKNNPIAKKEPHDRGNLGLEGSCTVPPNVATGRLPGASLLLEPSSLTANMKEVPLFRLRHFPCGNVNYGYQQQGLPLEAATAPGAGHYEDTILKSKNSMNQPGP
# Chain of ALK LF655del cleavage site mutant (chain, as listed by the source mutant): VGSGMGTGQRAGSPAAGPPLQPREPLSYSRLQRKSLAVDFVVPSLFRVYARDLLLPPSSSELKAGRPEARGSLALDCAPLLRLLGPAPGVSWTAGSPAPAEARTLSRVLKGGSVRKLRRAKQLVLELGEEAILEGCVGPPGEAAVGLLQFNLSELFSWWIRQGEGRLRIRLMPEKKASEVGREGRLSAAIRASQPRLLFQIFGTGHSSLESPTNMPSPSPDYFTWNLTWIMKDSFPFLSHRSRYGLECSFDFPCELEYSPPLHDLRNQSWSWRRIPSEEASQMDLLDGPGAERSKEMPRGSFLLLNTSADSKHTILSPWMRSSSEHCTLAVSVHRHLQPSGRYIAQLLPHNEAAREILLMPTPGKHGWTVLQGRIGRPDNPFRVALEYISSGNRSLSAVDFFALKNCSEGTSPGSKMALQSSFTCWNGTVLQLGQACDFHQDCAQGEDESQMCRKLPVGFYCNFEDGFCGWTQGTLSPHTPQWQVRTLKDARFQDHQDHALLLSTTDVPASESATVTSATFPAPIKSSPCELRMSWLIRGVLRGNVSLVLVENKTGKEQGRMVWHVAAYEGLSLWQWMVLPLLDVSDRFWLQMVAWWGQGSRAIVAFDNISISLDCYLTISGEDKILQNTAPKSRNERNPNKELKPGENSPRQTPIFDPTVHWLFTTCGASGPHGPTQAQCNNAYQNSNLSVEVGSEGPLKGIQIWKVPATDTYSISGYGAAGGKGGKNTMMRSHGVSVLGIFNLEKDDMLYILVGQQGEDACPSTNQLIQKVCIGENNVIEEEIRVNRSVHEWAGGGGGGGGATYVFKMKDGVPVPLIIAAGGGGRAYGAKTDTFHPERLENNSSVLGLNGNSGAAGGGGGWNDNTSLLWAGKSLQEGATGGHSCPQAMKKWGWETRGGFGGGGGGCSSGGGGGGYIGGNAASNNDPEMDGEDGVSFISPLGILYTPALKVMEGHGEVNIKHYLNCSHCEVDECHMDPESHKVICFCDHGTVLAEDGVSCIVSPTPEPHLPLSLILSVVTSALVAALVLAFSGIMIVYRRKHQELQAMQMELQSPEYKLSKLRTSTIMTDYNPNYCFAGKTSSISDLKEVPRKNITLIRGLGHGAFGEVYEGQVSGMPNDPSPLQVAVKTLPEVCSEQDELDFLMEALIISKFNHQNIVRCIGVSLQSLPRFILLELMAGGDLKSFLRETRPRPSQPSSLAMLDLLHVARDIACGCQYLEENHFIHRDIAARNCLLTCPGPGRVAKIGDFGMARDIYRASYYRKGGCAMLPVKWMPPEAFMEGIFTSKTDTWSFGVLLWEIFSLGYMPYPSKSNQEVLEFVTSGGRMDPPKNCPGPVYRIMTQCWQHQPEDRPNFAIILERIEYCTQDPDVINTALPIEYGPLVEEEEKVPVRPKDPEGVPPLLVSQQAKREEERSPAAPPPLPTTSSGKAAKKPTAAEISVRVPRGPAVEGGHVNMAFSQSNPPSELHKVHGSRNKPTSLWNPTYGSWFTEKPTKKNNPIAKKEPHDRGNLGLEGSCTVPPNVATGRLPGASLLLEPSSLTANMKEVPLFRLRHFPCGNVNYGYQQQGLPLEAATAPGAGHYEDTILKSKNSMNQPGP
protein,measurement,setting,value
Full-length recombinant human MMP-9 (protein) APRQRQSTLVLFPGDLRTNLTDRQLAEEYLYRYGYTRVAEMRGESKSLGPALLLLQKQLSLPETGELDSATLKAMRTPRCGVPDLGRFQTFEGDLKWHHHNITYWIQNYSEDLPRAVIDDAFARAFALWSAVTPLTFTRVYSRDADIVIQFGVAEHGDGYPFDGKDGLLAHAFPPGPGIQGDAHFDDDELWSLGKGVVVPTRFGNADGAACHFPFIFEGRSYSACTTDGRSDGLPWCSTTANYDTDDRFGFCPSERLYTQDGNADGKPCQFPFIFQGQSYSACTTDGRSDGYRWCATTANYDRDKLFGFCPTRADSTVMGGNSAGELCVFPFTFLGKEYSTCTSEGRGDGRLWCATTSNFDSDKKWGFCPDQGYSLFLVAAHEFGHALGLDHSSVPEALMYPMYRFTEGPPLHKDDVNGIRHLYGPRPEPEPRPPTTTTPQPTAPPTVCPTGPPTVHPSERPTAGPTGPPSAGPTGPPTAGPSTATTVPLSPVDDACNVNIFDAIAEIGNQLYLFKDGKYWRFSEGRGSRPQGPFLIADKWPALPRKLDSVFEERLSKKLFFFSGRQVWVYTGASVLGPRRLDKLGLGADVAQVTGALRSGRGKMLLFSGRRLWRFDVKAQMVDPRSASEVDRMFPGVPLDTHDVFQYREKAYFCQDRFYWRVSSRSELNQVDQVGYVTYDILQCPED,in vitro cleavage assay (western blot of ALK),[1],but not the ALK LF655del protein
same,in vitro cleavage assay (western blot of ALK),[2],"Treatment of purified WT ALK, but not the ALK LF655del protein, with recombinant human MMP-9 resulted in ALK cleavage"

# Reference: patent US20240262917
